The values below come from the DeepSol protein solubility set.

The nature of the data set: soluble on expression in E. coli; label from the status in PepcDB or PDB records.
Regarding “MSLHSDILVVGAGPAGLSFAAELAGSGLKVTLIERSPLTVLQNPPYDGREIALTHFSREIMQRLGMWDKIPENEIYPLRDAKVLNGRSDYQLHFPQPTEARGEPADCLGYLISNHNIRRAAYEVVSQLDNVSILTDTAVKEVKTSDNEAQVFLENGDILTARLLLAADSRFSQTRRQLGISSDMHDYSRTMFVCRMKHTLSNQHTAYECFHYGRTIALLPLEKRLTNTVITVDTDKINSVQNLSPEELAASVKEQLKGRLGDMELVSSIHHYPLVGMIAKRFYGKRSALIGDAAVGMHPVTAHGFNLGLSSADILAKLILEAEQRGQDIGAASLLEKYSSKHMLHAHPLYHGTNMMLKLFTNETAPAKLLRGLVLRAGNNFPPLKKLITKQLTGLEHHHHHH”, the “soluble on expression in E. coli” value is listed as “soluble”. On to “MSLIASIGELLIDLISVEEGDLKDVRLFEKHPGGAPANVAVGVSRLGVKSSLISKVGNDPFGEYLIEELSKENVDTRGIVKDEKKHTGIVFVQLKGASPSFLLYDDVAYFNMTLNDINWDIVEEAKIVNFGSVILARNPSRETVMKVIKKIKGSSLIAFDVNLRLDLWRGQEEEMIKVLEESIKLADIVKASEEEVLYLENQGVEVKGSMLTAITLGPKGCRLIKNETVVDVPSYNVNPLDTTGAGDAFMAALLVGILKLKGLDLLKLGKFANLVAALSTQKRGAWSTPRKDELLKYKEAREVLAEGHHHHHH”, for which the “soluble on expression in E. coli” value is reported as “soluble”. For “MSLIDFHFHAPVKEFLDFLGEFGEPAIKYFNAKVEVKGLKETLDYYESFGIKRFVVLPIDSTTFLGRRIPNQVINLDDRIVKFISVDPSKPNADEELKRSIKEFEPVGVKLHPQLQGFHPLDERALKIYEIIDNHGLIVVFHTGTSGIGAGVKSSIRLDYGRPIYFDEIAVRFQNMKIILAHFGWPWTEEAIAIALHKPNVYLDLSGWAPRYIPQVIWSNAKRLSDKLLFGSDFPLIRPERWLEEFKSVNLSQDIKDKILKHNAEKLVKKSEGHHHHHH”, the “soluble on expression in E. coli” value is given as “not soluble”. As to “MSLIDIHSHIVFDVDDGPKSREESKALLAESYRQGVRTIVSTSHRRKGMFETPEEKIAESFLQVREIAKEVADDLVIAYGAEIYYTPDVLDKLGKKRIPTLNDSRYALIEFSMNTPYRDIHSALSKILMLGITPVIAHIERYDALGNNEKRVRELIDMGCYTQVNSSHVLKPKLFGERYKFMKKRAQYFLEQTLVHVIASDMHNLDGRPPHMAEAYDFVTQKYGEAKAQELFIDNPRKIIMDQLIEGGSHHHHHH”, the “soluble on expression in E. coli” value is “soluble”. Then “MSLIISISNLSPKSNRSQTKDSQISKWSYFSDCILRSTGFPAEWIEKLCFHKTTTMFDLCYRTEQSLNELVERLKTLEQTCHIPSNARQDWQRIRKLVGKRKKVTDEFIHLMEQKGFDQSLTQEIESYERKRRLQEKNWTKARESFEAELAEKQLFLQEIYKNPRLQEAIFQQSPSMYKNAVVPYVHSSLQKRNTNIKRIERQLISYLQRLCTKNETTSFFGPIQYGVLTSEQQDIEYNFNQKETERRAFMPYWSIKVLAAQMKECDVFFPYLNVKLSYQYTKTGDSIHSPILEKMVKFPKPYADIIKHLTYENQSIEQLAKKLSQPVAWLAKKLRLLEKKRLILIEIPLSITEPDSLNELRSWILKIKDVEHPDLSLWQERLEWLWKVKQAYPYMTLGQKQELFHKLESTFTEWTGEQPRRLGGEIYADRNLLYEECHGPLNNIKIGGSIKHVLKQDVPKWLSICAKHGEQRRKQEQALAQEIFKMMYPNEDSVPFLKFVHDLSNHPDVHTWEKRWQSIKTEIEEAITHEVASNPKSVVHLSLDYQDFDRDMAWLTSPDLMIAKKDDDSYQVILGEIHDTIMVWGWALQFHPEKDRVNEQLVKKIQKSTQHLRMLNMLSSKRFKIVPFEYPGTTIQMNSFSNSPNEKIPLSQLKVTYTKEGLALTLPDHEEVFYTYNGELNTMVHSFFSLPRAVSFSIRTGESTPRLMLGDLVVQRAKWHISKQDVWSKKHTGSSIELFYEAYRFHLKESLPKEGFAKLPGQPKPVYVNFTSYFLIEMLEGLWPDGENCTFSEMLPNLSELWLSKEDQKTHTAEIRLSYFVERSEGHHHHHH”, with “soluble”.

Turning to “MSLIITGVDVHVVNLPLTSPFRSSFETKTGETRTVVRVTTDDGHVGWGETMWGSPVARLTEQLSSSLIGKSPFALEEFHATHTMVPFFYGYIGYAALAGLDVACWDLMGKITGRPLTDLIGGRVRDTVPITALITRADAPDAPPADLPVALAEHAAKVVAIGGFTAVKLKGTKDVDGDVKIMRALRAVLPDVELRVDPNAAWSVPESIRAGLRMEELDLEYLEDPCWGIDGMARVREKIRIPLCTNMCVVAFEDFAPAMRLGAVDVIHGDVYKWGGEGHHHHHH”, the “soluble on expression in E. coli” value is given as “not soluble”. As for “MSLIKGKELLGRPVVAVSNGAQVDNVHDVVFDHQGNRVLALLVEEGGWLRAAKAVPFGRVQSIGEKAVMIATPEDVVNTGRDPVLKEALAGKTNLIGMTLLTTDGQTLGKITDVYFDERSGQVEGYEASGGLFADMTNGRTFIPAPQSIQIGKDSAIVPAGVAAAMREQAPGGIRGAFHTAGKSLGGAVQGAADSVRGAYEDTSRSVRENYEQVSANVAEAAREGQQQARAAASDLRSRVQGGAEDLREASAERQKDFVVGKVAGQDVRTDNGVLIVAKGTTIDEGQARFAEQNGALPALLAAAAGGSVREGVRDLLADPSSDAGDVVGRRVQEDVRSSVGSLIAVQGQIVTPEVAERARELGLEERLVAATQAPGLQTPPVPDRAELREQASDLRDNLADGLSNVSQNVSQGANELLGRAKSWLGERREDLEDSLDRQEQEAYQARIRDALGRPVTRAVLTRTDRVILQPGELVTHAALDEARAAGVLGLLLDSVDGGEGHHHHHH”, the “soluble on expression in E. coli” value is on record as “soluble”.

On to “MSLIKVPCMQITNMHCSGQTVSLAAGDYHATIVTVGAGLAELTFQGCHLVIPHKPEEMPLAHLGKVLIPWPNRIANGCYRYQGQEYQLPINEHSSKAAIHGLLAWRDWQISELTATSVTLTAFLPPSYGYPFMLASQVVYSLNAHTGLSVEIASQNIGTVAAPYGVGIHPYLTCNLTSVDEYLFQLPANQVYAVDEHANPTTLHHVDELDLNFTQAKKIAATKIDHTFKTANDLWEMTITHPQQALSVSLCSDQLWVQVYSGEKLQRQGLAVEPMSCPPNAFNSGIDLLLLESGKPHRLFFNIYGQRKMGHHHHHHSH”, for which the “soluble on expression in E. coli” value is recorded as “not soluble”. With “MSLILENEVIWDPERYVLGNYIQNKINDVFLKTIHSKLSGNILDIGCGDGHYTSLLAGKVKHGQILGIDSSEQMIMHANQQWARTGLSFEVHNIEEFHQPQSFDLVLSFWCLHWTNIHISFPNIFHLLKREGKLYAVMSSFSDHSILQTWKELAKQNLYRDLTKQYISPINEQYFYGVINLLNRLPFKRIKLDLKTCRVHLPHIDYYKNLLLTMPFIKRVPSEITDTLVEDMLKAFQTICDRKYGGELYYETRPIFLEAIKEGHHHHHH”, the “soluble on expression in E. coli” value is reported as “not soluble”. “MSLIMSEPPQLTTPDDKDVENRKHSSTYSISNLLLEKKESSPSGSSSEDDSASSNDDDQRSPSATSSFIFPPASSSSSSESATSPTQIMAQLMANGGAVDPGLQAYFFLLQSQLNSQSMMNRVTQENVSRALTSFNLLNNLPGALPSLSPMGRLQHSMQLSPNSLNMQKKQSRPTFTGHQIYQLERKFEQTKYLAGADRAQLAQELNMSESQVKVWFQNRRTKWRKKEAADNALVKRGASGDKSPCSLSPFLSAGI”: the “soluble on expression in E. coli” value was “not soluble”. With “MSLIREAQRSELPAILELWLESTTWGHPFIKANYWRDCIPLVRDAYLANAQNWVWEEDGKLLGFVSIMEGRFLAAMFVAPKAVRRGIGKALMQYVQQRHPHLMLEVYQKNQPAINFYQAQGFHIVDCAWQDETQLPTWIMSWPVVQTLEGGSHHHHHH”, the “soluble on expression in E. coli” value is given as “soluble”. As to “MSLITDGIMHKVREVYQLLRKEPGIIVGVSNRHVHLSREDLETLFGEGYELTPVKELRQPGQYAAKETVTIVGPKGAIENVRVLGPVRKETQVEISRTDAFRLGVRPPVRDSGDLEGTPGIVIIGPNGILVKEKGVIIAKRHIHMHPKDAEYYGVKDKDIVKVIVESGDRRLIFDDVLIRVREDFALEFHVDTDEANAAMLNTGDLVYIVEFEGGSHHHHHH”, the “soluble on expression in E. coli” value was “soluble”. For “MSLIVTAYTQEGIVIGADSCITTNFTQEGKELYKHSHCGNKLFLLNKKIGISTCGDAIINGILLSSLIDQYIWSKKEENITLLQVEIDLKNIVNNQAKGKEYYVIFHICGYENGKRYVSKFDNNDKESHIKDVSERDGCIYDGQVDIVDLFSQDVAYRGTDGLYYDINIERCRYNELSLQETIEYVYFLISTTIQHMRFTYKKDNVGFPIDILVIMPNESLWLQKKELHIPGNY”, the “soluble on expression in E. coli” value is on record as “not soluble”.
